Laboratory results published in article PMC5201023, “An unconventional interaction between Dis1/TOG and Mal3/EB1 in fission yeast promotes the fidelity of chromosome segregation” (Journal of Cell Science, 2016).

B3: Dis1–eGFP (full-length Dis1 with eGFP fused to its C-terminus) (natural protein, Schizosaccharomyces pombe, UniProt Q09933 1-882, looked up)
chain: MELDDFNSRILSQIFDKSWKVRFEAYESLLHALNRALDDSDVCFQPWIHDPALWKQGLCDSNVPTQEHAVKSLRCFLDKSRQKGVNSAKSFVVAPLLEKCLPSPRQSIRDASHQALLILAKSDALDYVLEGLFSAARVKHPKQAVASIKELNSLLENFGIPALSPIPFYKLIPTLFAQSDKNIRQEASNLSITLYAWVGNAFKTHVFPQLKQIQVSDLEASFQNVTSRTTTGGHISNSLNTQEVVLPSFSSNAKPKPHLSSKSSSQGNTLQRSTSSFSTPNRKVSQPSDFSASPSRSIVSPAKNIVGSTPVDVLSKLTPEFHTALSSPKWKDRKEALESMVPVCSNPVYQEGDYSELLRVIAKSLKDANVVVVGVAALLLTHIAKALRKGFLPYTGIVLPSLFDRFKERKSSLVHSLLDAANAIFESCGLNDIMDETLEFLKHKNPQVKTETLRWLNRCLQLTDVCPPRASLETLCSLCVTLINDTFEPVRMATTNVLATLVQIFSQPVLSKYIVGLDPKKLPKILELSKDITVNAHPNQPSRPRLPRVASPLKTSPVKLAVTPQAPSPLPSSNPSQASLTEESLSTRSSPTKPSTTSLRSQSLVNRFASSTLKAPSSSSKGVSNAASSKQSFPSSPSISKKLETSRLSTKKLPGSTMKAASALKEYPQQQSMKSGGEKQDNLVTITMSEKVELDLLREEKAIRQVQEAEDALERERLFREINDLQIQNAEMKEQVYEKESTISQKEVEITSLRNEKDRLSTRLQQVLLELEKQHETNEEAMDIDLKVPESGAIGRVTTRATATTAMDESGNAGMVSSGIHSVSTKPSSYGTRRSLAGSMLQKPTQFSRPSFMFSPEARDNWRESHDLSSHLWEQIQRMKKA
B4: GST–Mal3 (GST-tagged Mal3) (natural protein, Schizosaccharomyces pombe, UniProt Q10113 1-308, looked up)
chain: MSESRQELLAWINQVTSLGLTRIEDCGKGYAMIQIFDSIYQDIPLKKVNFECNNEYQYINNWKVLQQVFLKKGIDKVVDPERLSRCKMQDNLEFVQWAKRFWDQYYPGGDYDALARRGNRGPANTRVMNSSAGATGPSRRRQVSSGSSTPSMTKSSANNNNVSSTANTAAVLRAKQAQQQITSLETQLYEVNETMFGLERERDFYFNKLREIEILVQTHLTTSPMSMENMLERIQAILYSTEDGFELPPDQPADLTTALTDHDTNNVAEEAQMTDLKDSETQRVPSAPDFVHARLQSLEVDDDENITF
notes: Mal3, the sole EB1 homologue of fission yeast; also called Mal3 FL
B5: Mal3 (recombinant full-length, without fluorescent protein) (natural protein, Schizosaccharomyces pombe, UniProt Q10113 1-308, looked up)
chain: MSESRQELLAWINQVTSLGLTRIEDCGKGYAMIQIFDSIYQDIPLKKVNFECNNEYQYINNWKVLQQVFLKKGIDKVVDPERLSRCKMQDNLEFVQWAKRFWDQYYPGGDYDALARRGNRGPANTRVMNSSAGATGPSRRRQVSSGSSTPSMTKSSANNNNVSSTANTAAVLRAKQAQQQITSLETQLYEVNETMFGLERERDFYFNKLREIEILVQTHLTTSPMSMENMLERIQAILYSTEDGFELPPDQPADLTTALTDHDTNNVAEEAQMTDLKDSETQRVPSAPDFVHARLQSLEVDDDENITF
notes: Mal3, the sole EB1 homologue of fission yeast; also called unlabelled Mal3; source: bacterially expressed, purified (as in Maurer et al., 2011)
B6: Dis1 C2–eGFP (amino acids 690–882) (domain or fragment, Schizosaccharomyces pombe, UniProt Q09933 690-882, looked up)
chain: EKVELDLLREEKAIRQVQEAEDALERERLFREINDLQIQNAEMKEQVYEKESTISQKEVEITSLRNEKDRLSTRLQQVLLELEKQHETNEEAMDIDLKVPESGAIGRVTTRATATTAMDESGNAGMVSSGIHSVSTKPSSYGTRRSLAGSMLQKPTQFSRPSFMFSPEARDNWRESHDLSSHLWEQIQRMKKA
notes: also called Dis1-C2–eGFP (WT); source: bacterially expressed, purified (as the other Dis1–eGFP constructs)

What was measured:
[1] = target: B4; assay: pull-down; peptide competition: 1 µM GST–Mal3 on glutathione beads pre-incubated 30 min with Dis1 peptide (0, 0.5, 2.5, 5.0, 50, 100 µM), then 0.5 µM Dis1 C2–eGFP for 1 h; details: both partners purified
[2] = target: T1, Dis1 C1–eGFP (amino acids 520–882) (Schizosaccharomyces pombe, UniProt Q09933 520-882); assay: pull-down; GST pulldown: 1 µM GST, GST–Mal3 or truncated GST–Mal3 on glutathione–Sepharose beads with 0.5 µM Dis1–eGFP proteins; BRB80 with 85 mM KCl, 0.01% Brij-35, 1 mM DTT; 1 h at 4°C; details: both partners purified
T1 construct: source: bacterially expressed, purified (as the other Dis1–eGFP constructs)
T1 sequence (looked up): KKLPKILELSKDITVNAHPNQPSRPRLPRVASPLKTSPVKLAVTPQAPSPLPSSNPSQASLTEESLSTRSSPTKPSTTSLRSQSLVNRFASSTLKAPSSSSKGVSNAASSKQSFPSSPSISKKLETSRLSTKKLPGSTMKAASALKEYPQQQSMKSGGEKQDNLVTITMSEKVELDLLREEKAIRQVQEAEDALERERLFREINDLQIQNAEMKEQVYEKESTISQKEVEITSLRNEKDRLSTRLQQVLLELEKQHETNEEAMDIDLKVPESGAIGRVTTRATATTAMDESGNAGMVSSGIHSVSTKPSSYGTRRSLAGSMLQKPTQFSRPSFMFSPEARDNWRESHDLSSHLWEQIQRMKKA

[3] = target: B5; assay: cell-based or functional assay
[4] = target: B3; assay: pull-down; GST pulldown: 1 µM GST, GST–Mal3 or truncated GST–Mal3 on glutathione–Sepharose beads with 0.5 µM Dis1–eGFP proteins; BRB80 with 85 mM KCl, 0.01% Brij-35, 1 mM DTT; 1 h at 4°C; details: both partners purified
[5] = target: T2, Dis1–HA (full-length Dis1 with a hemagglutinin tag at its C-terminus) (Schizosaccharomyces pombe, UniProt Q09933 1-882); assay: SEC; analytical gel filtration on Superose 6 10/300; 25 mM K-HEPES pH 7.5, 200 mM KCl, 1 mM EGTA, 1 mM MgCl2; 5 µM Dis1–eGFP with 10 µM tubulin, or 5 µM Dis1–HA with 20 µM Mal3; details: both partners purified
T2 construct: Dis1, fission yeast (S. pombe) member of the XMAP215/TOG family; cDNA optimised for E. coli codons; also called recombinant Dis1 with an HA tag; source: bacterially expressed, purified (IgG Sepharose, Precision protease); not shown: HA, C-terminal, kept
T2 sequence (looked up): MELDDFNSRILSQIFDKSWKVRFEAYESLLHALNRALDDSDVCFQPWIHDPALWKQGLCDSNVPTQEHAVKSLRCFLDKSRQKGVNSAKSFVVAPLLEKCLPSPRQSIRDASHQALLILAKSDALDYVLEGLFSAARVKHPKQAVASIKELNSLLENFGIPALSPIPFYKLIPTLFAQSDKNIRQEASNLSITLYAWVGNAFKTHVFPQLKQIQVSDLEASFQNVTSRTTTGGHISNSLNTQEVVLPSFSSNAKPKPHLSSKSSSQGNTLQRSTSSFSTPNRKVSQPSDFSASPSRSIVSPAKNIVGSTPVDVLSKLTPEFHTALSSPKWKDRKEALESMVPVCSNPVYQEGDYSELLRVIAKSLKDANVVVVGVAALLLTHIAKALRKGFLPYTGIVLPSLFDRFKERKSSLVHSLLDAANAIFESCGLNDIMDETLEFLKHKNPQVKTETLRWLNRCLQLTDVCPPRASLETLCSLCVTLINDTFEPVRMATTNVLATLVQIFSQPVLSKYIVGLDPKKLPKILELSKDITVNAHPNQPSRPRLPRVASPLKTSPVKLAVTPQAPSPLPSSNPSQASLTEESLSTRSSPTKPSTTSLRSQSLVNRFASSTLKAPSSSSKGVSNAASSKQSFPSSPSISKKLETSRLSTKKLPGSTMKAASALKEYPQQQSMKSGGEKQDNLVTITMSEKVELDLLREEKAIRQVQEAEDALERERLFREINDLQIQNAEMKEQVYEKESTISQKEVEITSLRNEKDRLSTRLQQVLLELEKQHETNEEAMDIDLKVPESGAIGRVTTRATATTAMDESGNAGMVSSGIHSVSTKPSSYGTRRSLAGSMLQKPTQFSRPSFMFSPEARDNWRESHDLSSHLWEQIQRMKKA

[6] = target: B3; assay: TIRF microscopy on dynamic microtubules in vitro; Cy5-labelled MTs grown from immobilised GMPCPP-stabilised seeds; BRB80 with 85 mM KCl, 1 mM GTP, 10 mM β-mercaptoethanol, 0.1% Brij-35, 0.1% methylcellulose; 30±1°C; 10-20 nM Dis1–eGFP proteins with or without 20 nM-1 µM Mal3; details: both partners purified
[7] = target: B5; assay: as above; details: both partners purified
[8] = target: B6; assay: pull-down; Mal3 (amino acids 174–247) mixed with wild-type or LAPA Dis1-C2–eGFP and pulled down by GFP trap beads; details: both partners purified

B1: Dis1 peptide (amino acids 833–852) (peptide, UniProt Q09933 833-852, looked up)
peptide: RRSLAGSMLQKPTQFSRPSF
notes: source: spotted on the peptide array membrane
B1: binds [1].

B2: GST–Mal3 C1 (amino acids 144–308) (domain or fragment, Schizosaccharomyces pombe, UniProt Q10113 144-308, looked up)
chain: SSGSSTPSMTKSSANNNNVSSTANTAAVLRAKQAQQQITSLETQLYEVNETMFGLERERDFYFNKLREIEILVQTHLTTSPMSMENMLERIQAILYSTEDGFELPPDQPADLTTALTDHDTNNVAEEAQMTDLKDSETQRVPSAPDFVHARLQSLEVDDDENITF
notes: also called C-terminal half
B2: binds [2].

B3 was tested, and the “MT catastrophe frequency with Mal3 and Dis1 together, fold over tubulin alone (Mal3 alone ∼1.9-fold, Dis1 alone no effect)” value [3] was ~3.8 fold.

B4: binds [4].

B5: binds [5]; binds [6].

B6: binds [1]; binds [7].

B7: Mal3 C4 (amino acids 174–247; C-terminal part of the coiled-coil and the EBH domain) (domain or fragment, Schizosaccharomyces pombe, UniProt Q10113 174-247, looked up)
chain: AKQAQQQITSLETQLYEVNETMFGLERERDFYFNKLREIEILVQTHLTTSPMSMENMLERIQAILYSTEDGFEL
notes: Homodimer in both crystal structures; also called Mal3 EBH domain; source: purified (His-tag resin, TEV protease, gel filtration)
B7: binds [8].
